# In patent publication US20150274802A1:
# “And” between values parts separate entries of the source, which are not always exact repeats. Identical values can stand only once.
# Columns and labels:
# [1] = target: human IGF-1 receptor (human) (UniProt P08069); test: cell-based or functional assay
# [2] = target: type A insulin receptor (UniProt P06213); test: cell-based or functional assay
# [3] = target: type B insulin receptor (UniProt P06213); test: cell-based or functional assay
# [4] = target: human IGF-1 receptor (human) (UniProt P08069); test: competition SPA, [125I]IGF-1
# [5] = target: human insulin receptor (human) (UniProt P06213); test: competition SPA, [125I]insulin
Substance,"% Insulin Activity (in vitro, assay not named) [1]","% Insulin Activity (in vitro, assay not named) [2]","% Insulin Activity (in vitro, assay not named) [3]",% IGF-1 (in test) [4],% native IGF-1 activity (0.55 nM) [4],% insulin (in test) [5],% native insulin activity (0.6 nM) [5],IC50 [5]
"MIU-69: B2, A14-PEG10K di-PEGylated MIU-35 (ligand)",< 0.1%,1%,0.5%,,,,,
IGF-1 A:In (1-17)-IGF-1 B(18-30) (from UniProt P05019 18-30) (ligand),,,,0.9%,0.9%,11.3% and 20.1%,22.5% and 24.2%,2.67 nM and 2.48 nM
"MIU-68: B2, B22-PEG10K di-PEGylated MIU-35 (ligand)",< 0.1%,0.4%,0.1%,,,,,
"MIU-67: B2, C8-PEG10K di-PEGylated MIU-35 (ligand)",< 0.1%,0.2%,0.1%,,,,,
